The record followed here is PMC11535040, “Requirement of Nek2a and cyclin A2 for Wapl-dependent removal of cohesin from prophase chromatin” (The EMBO Journal, 2024).

This experiment addresses T1, Flag-tagged Pds5b (wild type) phosphorylated by Nek2a and Cdk1/2-cyclin A2 (human, UniProt Q9NTI5 1-1447, phosphoserine at 1161 and 1166 (by Cdk1/2-cyclin A2) and at 1177, 1182 and 1209 (by Nek2a)).
T1 construct: Pds5b, human; insert by PCR on human cDNA; How fully each site was phosphorylated in these preparations was not measured; also called Pds5b-WT treated with these two kinases; Pds5b co-expressed with Nek2aΔMR and Δ86-cyclin A2
T1 sequence (looked up): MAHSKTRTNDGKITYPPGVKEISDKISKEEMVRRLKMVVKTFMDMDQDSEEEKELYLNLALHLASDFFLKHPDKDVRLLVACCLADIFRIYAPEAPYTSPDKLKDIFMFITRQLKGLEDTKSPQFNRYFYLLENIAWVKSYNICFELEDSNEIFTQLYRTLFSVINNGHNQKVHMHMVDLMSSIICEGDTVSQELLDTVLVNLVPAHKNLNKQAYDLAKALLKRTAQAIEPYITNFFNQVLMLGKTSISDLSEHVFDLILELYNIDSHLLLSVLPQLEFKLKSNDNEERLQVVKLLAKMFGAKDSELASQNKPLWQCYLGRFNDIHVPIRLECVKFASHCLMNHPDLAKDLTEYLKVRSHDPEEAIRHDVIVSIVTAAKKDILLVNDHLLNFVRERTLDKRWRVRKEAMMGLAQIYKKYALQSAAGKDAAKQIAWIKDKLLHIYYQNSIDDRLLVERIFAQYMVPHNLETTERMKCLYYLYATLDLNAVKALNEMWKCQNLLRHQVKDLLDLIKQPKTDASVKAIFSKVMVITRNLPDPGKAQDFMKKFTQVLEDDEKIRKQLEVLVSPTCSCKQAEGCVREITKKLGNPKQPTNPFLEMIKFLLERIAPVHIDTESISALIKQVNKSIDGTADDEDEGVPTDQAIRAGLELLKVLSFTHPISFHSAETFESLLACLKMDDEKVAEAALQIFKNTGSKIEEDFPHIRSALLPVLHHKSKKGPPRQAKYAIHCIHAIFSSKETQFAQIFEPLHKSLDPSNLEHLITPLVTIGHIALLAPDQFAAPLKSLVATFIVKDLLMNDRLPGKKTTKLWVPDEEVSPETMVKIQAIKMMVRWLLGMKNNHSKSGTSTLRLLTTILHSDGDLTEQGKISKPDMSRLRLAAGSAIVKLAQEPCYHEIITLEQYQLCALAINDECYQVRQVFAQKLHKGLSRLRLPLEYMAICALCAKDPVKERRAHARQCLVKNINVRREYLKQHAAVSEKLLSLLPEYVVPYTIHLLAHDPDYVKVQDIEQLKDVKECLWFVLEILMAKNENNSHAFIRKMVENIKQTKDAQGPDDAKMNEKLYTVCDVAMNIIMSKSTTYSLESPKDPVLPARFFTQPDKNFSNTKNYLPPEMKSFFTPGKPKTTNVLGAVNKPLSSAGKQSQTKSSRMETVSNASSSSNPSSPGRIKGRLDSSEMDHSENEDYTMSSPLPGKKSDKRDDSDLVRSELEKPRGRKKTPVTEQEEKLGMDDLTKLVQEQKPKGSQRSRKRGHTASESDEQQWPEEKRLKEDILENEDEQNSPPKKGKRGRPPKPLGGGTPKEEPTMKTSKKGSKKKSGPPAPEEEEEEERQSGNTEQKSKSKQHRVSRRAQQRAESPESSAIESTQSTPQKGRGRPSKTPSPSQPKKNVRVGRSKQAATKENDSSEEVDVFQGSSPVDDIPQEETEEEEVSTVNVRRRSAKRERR
In words: pull-down; Flag-Pds5b variants affinity-purified from Nek2a- and cyclin A2-free prometaphase cells, incubated on the beads with recombinant Nek2a and/or Cdk1/2-cyclin A2 and ATP, washed, then incubated with recombinant Wapl (2 µl) and sororin (0.3 µg) in 15 µl cleavage buffer without ATP, 20 min at 37 °C; immunoblotting. The following applies: both partners purified.

B1: recombinant human Wapl (natural protein, UniProt Q7Z5K2 1-1190, looked up)
chain: MTSRFGKTYSRKGGNGSSKFDEVFSNKRTTLSTKWGETTFMAKLGQKRPNFKPDIQEIPKKPKVEEESTGDPFGFDSDDESLPVSSKNLAQVKCSSYSESSEAAQLEEVTSVLEANSKISHVVVEDTVVSDKCFPLEDTLLGKEKSTNRIVEDDASISSCNKLITSDKVENFHEEHEKNSHHIHKNADDSTKKPNAETTVASEIKETNDTWNSQFGKRPESPSEISPIKGSVRTGLFEWDNDFEDIRSEDCILSLDSDPLLEMKDDDFKNRLENLNEAIEEDIVQSVLRPTNCRTYCRANKTKSSQGASNFDKLMDGTSQALAKANSESSKDGLNQAKKGGVSCGTSFRGTVGRTRDYTVLHPSCLSVCNVTIQDTMERSMDEFTASTPADLGEAGRLRKKADIATSKTTTRFRPSNTKSKKDVKLEFFGFEDHETGGDEGGSGSSNYKIKYFGFDDLSESEDDEDDDCQVERKTSKKRTKTAPSPSLQPPPESNDNSQDSQSGTNNAENLDFTEDLPGVPESVKKPINKQGDKSKENTRKIFSGPKRSPTKAVYNARHWNHPDSEELPGPPVVKPQSVTVRLSSKEPNQKDDGVFKAPAPPSKVIKTVTIPTQPYQDIVTALKCRREDKELYTVVQHVKHFNDVVEFGENQEFTDDIEYLLSGLKSTQPLNTRCLSVISLATKCAMPSFRMHLRAHGMVAMVFKTLDDSQHHQNLSLCTAALMYILSRDRLNMDLDRASLDLMIRLLELEQDASSAKLLNEKDMNKIKEKIRRLCETVHNKHLDLENITTGHLAMETLLSLTSKRAGDWFKEELRLLGGLDHIVDKVKECVDHLSRDEDEEKLVASLWGAERCLRVLESVTVHNPENQSYLIAYKDSQLIVSSAKALQHCEELIQQYNRAEDSICLADSKPLPHQNVTNHVGKAVEDCMRAIIGVLLNLTNDNEWGSTKTGEQDGLIGTALNCVLQVPKYLPQEQRFDIRVLGLGLLINLVEYSARNRHCLVNMETSCSFDSSICSGEGDDSLRIGGQVHAVQALVQLFLERERAAQLAESKTDELIKDAPTTQHDKSGEWQETSGEIQWVSTEKTDGTEEKHKKEEEDEELDLNKALQHAGKHMEDCIVASYTALLLGCLCQESPINVTTVREYLPEGDFSIMTEMLKKFLSFMNLTCAVGTTGQKSISRVIEYLEHC
notes: Wapl, human; insert by PCR on human cDNA; Isolated from mitotically arrested cells; also called GFP-SUMOstar-Wapl; source: Hek293T, transiently transfected, taxol-arrested; not shown: GFP, N-terminal, cleaved; SUMOstar, N-terminal, cleaved
For the molecule B1, the binding result is “binds”.
